Measurements taken from IntAct's records for PubMed 24876499.

B1: Phosphatidylinositol 4-kinase beta (Homo sapiens), Q9UBF8-2 (parent)
chain: MGDTVVEPAPLKPTSEPTSGPPGNNGGSLLSVITEGVGELSVIDPEVAQKACQEVLEKVKLLHGGVAVSSRGTPLELVNGDGVDSEIRCLDDPPAQIREEEDEMGAAVASGTAKGARRRRQNNSAKQSWLLRLFESKLFDISMAISYLYNSKEPGVQAYIGNRLFCFRNEDVDFYLPQLLNMYIHMDEDVGDAIKPYIVHRCRQSINFSLQCALLLGAYSSDMHISTQRHSRGTKLRKLILSDELKPAHRKRELPSLSPAPDTGLSPSKRTHQRSKSDATASISLSSNLKRTASNPKVENEDEPVRLAPEREFIKSLMAIGKRLATLPTKEQKTQRLISELSLLNHKLPARVWLPTAGFDHHVVRVPHTQAVVLNSKDKAPYLIYVEVLECENFDTTSVPARIPENRIRSTRSVENLPECGITHEQRAGSFSTVPNYDNDDEAWSVDDIGELQVELPEVHTNSCDNISQFSVDSITSQESKEPVFIAAGDIRRRLSEQLAHTPTAFKRDPEDPSAVALKEPWQEKVRRIREGSPYGHLPNWRLLSVIVKCGDDLRQELLAFQVLKQLQSIWEQERVPLWIKPYKILVISADSGMIEPVVNAVSIHQVKKQSQLSLLDYFLQEHGSYTTEAFLSAQRNFVQSCAGYCLVCYLLQVKDRHNGNILLDAEGHIIHIDFGFILSSSPRNLGFETSAFKLTTEFVDVMGGLDGDMFNYYKMLMLQGLIAARKHMDKVVQIVEIMQQGSQLPCFHGSSTIRNLKERFHMSMTEEQLQLLVEQMVDGSMRSITTKLYDGFQYLTNGIM

Variants of: B1
Settings: with rb11a_human RAB11A

Variant | effect of a mutation on the interaction
Y159A | disrupting interaction strength
G155D | decreasing interaction strength
N162A | disrupting interaction strength
F165A | disrupting interaction strength
Y159A;N162A | disrupting interaction strength
